# Data: IntAct's records for PubMed 19151722
# B1: Protein transport protein TIP20 (Saccharomyces cerevisiae), P33891 (parent)
# chain: MNGIDDLLNINDRIKQVQNERNELASKLQNLKQSLASNDTEVALSEVIAQDIIEVGASVEGLEQLRAKYGDLQILNKLEKVAVQQTQMQAGVDKLDSFERQLDELAEQPPDQFTLDDVKALHSKLTSVFATVPQINNIDSQYAAYNKLKSKVTGKYNDVIIQRLATNWSNTFDQKLLEAQWDTQKFASTSVGLVKCLRENSTKLYQLSLLYLPLEEETQNGDSERPLSRSNNNQEPVLWNFKSLANNFNVRFTYHFHATSSSSKIETYFQFLNDYLAENLYKCINIFHDDCNGLTKPVIHEQFINYVLQPIRDKVRSTLFQNDLKTLIVLISQILATDKNLLNSFHYHGLGLVSLISDEVWEKWINYEVEMANRQFINITKNPEDFPKSSQNFVKLINKIYDYLEPFYDLDFDLLVRYKLMTCSLIFMNLTSSYLDYILTVDSLNETRTKEQELYQTMAKLQHVNFVYRKIKSLSSNFIFIQLTDIVNSTESKKYNSLFQNVENDYEKAMSTDMQNSIVHRIQKLLKETLRNYFKISTWSTLEMSVDENIGPSSVPSAELVNSINVLRRLINKLDSMDIPLAISLKVKNELLNVIVNYFTESILKLNKFNQNGLNQFLHDFKSLSSILSLPSHATNYKCMSLHELVKILKLKYDPNNQQFLNPEYIKTGNFTSLKEAYSIKYLKDTKIQDALYRIIYGNIL
# partner: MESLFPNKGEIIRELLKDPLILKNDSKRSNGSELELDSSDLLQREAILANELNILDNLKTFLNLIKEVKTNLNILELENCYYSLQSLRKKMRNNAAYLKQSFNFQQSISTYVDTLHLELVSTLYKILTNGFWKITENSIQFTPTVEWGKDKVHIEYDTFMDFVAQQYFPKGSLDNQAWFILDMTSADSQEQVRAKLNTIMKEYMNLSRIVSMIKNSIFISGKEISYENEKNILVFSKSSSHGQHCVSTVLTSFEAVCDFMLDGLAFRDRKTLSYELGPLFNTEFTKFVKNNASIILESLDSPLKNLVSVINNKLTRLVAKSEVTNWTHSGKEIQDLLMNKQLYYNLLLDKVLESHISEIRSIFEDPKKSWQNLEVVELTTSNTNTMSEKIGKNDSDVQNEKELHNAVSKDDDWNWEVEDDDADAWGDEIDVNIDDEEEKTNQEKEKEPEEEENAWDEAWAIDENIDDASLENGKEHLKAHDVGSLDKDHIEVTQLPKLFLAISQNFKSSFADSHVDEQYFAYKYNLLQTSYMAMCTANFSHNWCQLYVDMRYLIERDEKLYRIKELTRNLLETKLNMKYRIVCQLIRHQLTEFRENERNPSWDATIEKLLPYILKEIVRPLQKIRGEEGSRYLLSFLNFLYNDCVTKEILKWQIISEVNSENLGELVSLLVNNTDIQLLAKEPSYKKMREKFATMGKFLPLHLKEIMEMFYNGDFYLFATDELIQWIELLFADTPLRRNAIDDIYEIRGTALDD
# B2: Protein transport protein DSL1 (Saccharomyces cerevisiae), P53847 (parent)
# chain: B1 partner
# partner: B1 chain
# Variants of: B1
# Conditions: with dsl1_yeast DSL1, P53847
row,Variant,effect of a mutation on the interaction
1,I10D;L28E,disrupting interaction
2,V17E,disrupting interaction

# Variants of: B2
# Conditions: with tip20_yeast TIP20, P33891
row,Variant,effect of a mutation on the interaction
1,L48E,disrupting interaction
2,L58D,disrupting interaction
3,L55E,disrupting interaction
